Tests used:
CFP-TALK2 = molecular target: T1, CFP-TALK2 (human, UniProt Q96T54-3 1-332); experiment: FRET or BRET; acceptor photobleaching FRET (CFP donor, YFP acceptor) in HEK293 cells, confocal microscope; cDNA ratio CFP:YFP 1:1; E_FRET = percent increase in CFP emission after YFP photobleaching; settings: partners not purified
T1 construct: human TALK2 (KCNK17), full-length cDNA NM_031460.3; The end of the tag is read from the order in the construct's name; also called KCNK17; source: HEK293, transiently transfected, in living cells; not shown: CFP, N-terminal, kept
T1 sequence (looked up): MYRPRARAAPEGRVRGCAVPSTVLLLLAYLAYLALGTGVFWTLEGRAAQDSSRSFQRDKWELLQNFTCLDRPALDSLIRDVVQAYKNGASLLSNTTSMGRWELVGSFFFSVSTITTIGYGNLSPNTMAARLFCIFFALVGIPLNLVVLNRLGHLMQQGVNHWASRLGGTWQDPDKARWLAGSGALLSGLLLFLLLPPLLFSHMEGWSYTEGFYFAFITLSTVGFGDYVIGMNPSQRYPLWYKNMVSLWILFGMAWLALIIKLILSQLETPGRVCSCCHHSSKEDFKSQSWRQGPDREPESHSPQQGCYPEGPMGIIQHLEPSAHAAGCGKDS

CFP-TASK1 = molecular target: T2, CFP-TASK1 (human, UniProt O14649 1-394); experiment: as above; settings: partners not purified
T2 construct: human TASK1 (KCNK3), full-length cDNA NM_002246.2; The end of the tag is read from the order in the construct's name; also called KCNK3; source: HEK293, transiently transfected, in living cells; not shown: CFP, N-terminal, kept

B1: TASK1-YFP (natural protein, human, UniProt O14649 1-394, looked up)
chain: MKRQNVRTLALIVCTFTYLLVGAAVFDALESEPELIERQRLELRQQELRARYNLSQGGYEELERVVLRLKPHKAGVQWRFAGSFYFAITVITTIGYGHAAPSTDGGKVFCMFYALLGIPLTLVMFQSLGERINTLVRYLLHRAKKGLGMRRADVSMANMVLIGFFSCISTLCIGAAAFSHYEHWTFFQAYYYCFITLTTIGFGDYVALQKDQALQTQPQYVAFSFVYILTGLTVIGAFLNLVVLRFMTMNAEDEKRDAEHRALLTRNGQAGGGGGGGSAHTTDTASSTAAAGGGGFRNVYAEVLHFQSMCSCLWYKSREKLQYSIPMIIPRDLSTSDTCVEQSHSSPGGGGRYSDTPSRRCLCSGAPRSAISSVSTGLHSLSTFRGLMKRRSSV
notes: human TASK1 (KCNK3), full-length cDNA NM_002246.2; The end of the tag is read from the order in the construct's name; also called KCNK3; source: HEK293, transiently transfected, in living cells; not shown: YFP, C-terminal, kept
**Q.** How did the E_FRET (CFP-TALK2) turn out when B1 was run?
**A.** 7.8%

**Q.** And the E_FRET (CFP-TASK1)?
**A.** 9.8%

B2: TALK2-YFP (natural protein, human, UniProt Q96T54-3 1-332, looked up)
chain: MYRPRARAAPEGRVRGCAVPSTVLLLLAYLAYLALGTGVFWTLEGRAAQDSSRSFQRDKWELLQNFTCLDRPALDSLIRDVVQAYKNGASLLSNTTSMGRWELVGSFFFSVSTITTIGYGNLSPNTMAARLFCIFFALVGIPLNLVVLNRLGHLMQQGVNHWASRLGGTWQDPDKARWLAGSGALLSGLLLFLLLPPLLFSHMEGWSYTEGFYFAFITLSTVGFGDYVIGMNPSQRYPLWYKNMVSLWILFGMAWLALIIKLILSQLETPGRVCSCCHHSSKEDFKSQSWRQGPDREPESHSPQQGCYPEGPMGIIQHLEPSAHAAGCGKDS
notes: human TALK2 (KCNK17), full-length cDNA NM_031460.3; The end of the tag is read from the order in the construct's name; also called KCNK17; source: HEK293, transiently transfected, in living cells; not shown: YFP, C-terminal, kept
**Q.** How did the E_FRET (CFP-TALK2) turn out when B2 was run?
**A.** 8.6%

Reference: PMC5634629, “Heterodimerization of two pore domain K^+ channel TASK1 and TALK2 in living heterologous expression systems” (PLoS ONE, 2017)
